This note sets out measurements from patent publication US20240182551A1 (published 2024).

Where only a bound is given, the exact number is not on record here.

By Kd is commonly meant the equilibrium constant for the complex coming apart.

The target in one experiment is SARS-CoV-2 S (SARS-CoV-2, UniProt P0DTC2 1-1208). The experiment is described as follows: BLI.
Experiment [1] addresses T1, HCoV-HKU1 recombinant soluble S ectodomain protein (prefusion-stabilized trimer) (HCoV-HKU1).
T1 chain: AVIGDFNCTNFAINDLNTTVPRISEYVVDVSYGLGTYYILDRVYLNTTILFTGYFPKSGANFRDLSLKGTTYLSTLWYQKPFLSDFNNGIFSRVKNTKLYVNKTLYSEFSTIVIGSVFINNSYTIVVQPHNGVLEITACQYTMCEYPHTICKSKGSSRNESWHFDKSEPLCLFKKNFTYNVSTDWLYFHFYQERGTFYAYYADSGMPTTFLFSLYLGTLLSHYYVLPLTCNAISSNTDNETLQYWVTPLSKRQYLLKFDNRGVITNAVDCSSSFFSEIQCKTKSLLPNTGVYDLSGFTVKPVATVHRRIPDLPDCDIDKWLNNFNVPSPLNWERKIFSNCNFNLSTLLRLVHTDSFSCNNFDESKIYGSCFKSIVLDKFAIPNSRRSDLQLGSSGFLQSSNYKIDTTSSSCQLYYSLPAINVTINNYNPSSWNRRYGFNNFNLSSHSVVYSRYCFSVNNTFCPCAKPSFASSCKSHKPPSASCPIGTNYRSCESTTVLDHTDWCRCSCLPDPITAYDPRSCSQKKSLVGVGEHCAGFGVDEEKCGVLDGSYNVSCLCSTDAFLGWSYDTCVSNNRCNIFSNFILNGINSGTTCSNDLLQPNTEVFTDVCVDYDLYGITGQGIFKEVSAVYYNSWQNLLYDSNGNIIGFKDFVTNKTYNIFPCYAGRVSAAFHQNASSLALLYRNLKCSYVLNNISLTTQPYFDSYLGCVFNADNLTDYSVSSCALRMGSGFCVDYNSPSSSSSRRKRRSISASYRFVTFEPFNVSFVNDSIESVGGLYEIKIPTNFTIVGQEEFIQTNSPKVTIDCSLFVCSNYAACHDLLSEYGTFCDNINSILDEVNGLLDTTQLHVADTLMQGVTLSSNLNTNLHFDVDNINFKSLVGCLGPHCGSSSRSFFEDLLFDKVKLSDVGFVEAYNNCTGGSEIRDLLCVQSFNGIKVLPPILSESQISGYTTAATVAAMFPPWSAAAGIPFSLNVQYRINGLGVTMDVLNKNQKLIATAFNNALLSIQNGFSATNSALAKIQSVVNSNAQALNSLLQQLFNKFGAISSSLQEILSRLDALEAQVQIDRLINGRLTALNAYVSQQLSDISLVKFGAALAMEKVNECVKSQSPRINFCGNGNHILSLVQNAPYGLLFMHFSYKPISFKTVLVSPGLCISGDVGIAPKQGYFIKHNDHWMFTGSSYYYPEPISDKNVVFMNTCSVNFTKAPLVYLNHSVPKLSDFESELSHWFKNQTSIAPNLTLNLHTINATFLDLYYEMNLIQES
The experiment is described as follows: BLI.

B1: CC40.8 IgG (antibody, V domains shown)
VH: EVQLLESGGGLVQPGGSLRLSCAASGFTFSSYVMTWARQAPGKGLEWVSAISGTGYTYYADSVKGRFTVSRDNSKNTLFLQMSSLRAEDTAVYYCAITMAPVVWGQGTTVTVSS
VL: SYELTQPPSVSVSPGQTARITCSGDALPKRYAYWYQQKSGQAPILVIYEDKKRPSGIPERLSGSKSGTVATLTISGAQVEDEADYYCYSTDSSGNHAVFGGGTQLTVL
The molecule B1 returned a dissociation constant (Kd) with SARS-CoV-2 S of 1 nM.

B2: CC40.8 (IgG) (antibody, V domains shown)
VH: B1 VH
VL: B1 VL
As to B2, in experiment [1], the Kd was below 1 nM.

B3: Fab CC40.8 (Fab, V domains shown)
VH: B1 VH
VL: B1 VL
Regarding B3, the Kd in experiment [1] is below 1 nM.

B4: CC40.8 Fab (Fab, V domains shown)
VH: B1 VH
VL: B1 VL
B4 registered a Kd with SARS-CoV-2 S of 5 nM.

B5: Fab CC9.2 (Fab, V domains shown)
VH: EVQLVESGGGLVQPGRSLRLSCVAPGFTLGGYGMHWVRQAPGKGLEWVGLISYDGSVQKYGSSVKGRFTISKDNSKNTLYLEMNSLRADDTAVYFCVKGASLGDNWGQGTLVTVSS
VL: EIVMTQSPLSLPVTLGQPASISCRSSQSLVYSDGDTYMSWFHQRPGQSPRRLIYKVSNRDFGVPDRFSGSGSGTDFTLKISRVEAEDVGVYYCMQGTHWPYTFGPGTKVEIK
For the molecule B5, in experiment [1], the equilibrium dissociation constant (Kd) was below 1 nM.

B6: CC9.2 IgG (antibody, V domains shown)
VH: B5 VH
VL: B5 VL
B6 returned a dissociation constant Kd with SARS-CoV-2 S of 16 nM.

B7: CC9.2 Fab (Fab, V domains shown)
VH: B5 VH
VL: B5 VL
For B7, the equilibrium dissociation constant (Kd) with SARS-CoV-2 S is 1680 nM.

B8: CC9.2 (IgG) (antibody, V domains shown)
VH: B5 VH
VL: B5 VL
B8: in experiment [1], the Kd is below 1 nM.

B9: Fab CC9.3 (Fab, V domains shown)
VH: QVQLQESGPGLVKPSETLSLTCTVSGGSIRSDFWSWIRQFPGKGLEWIGYIYYSGSTNYNPSLESRVTISVDTSKNEFSLKLNYVTAADTAIYYCARETRWNWLDSWGQGTLVTVSS
VL: DIVMTQSPDSLAVSLGERASINCKSSQTISYISNNKNYLAWYQQKPGQPPRLLIYWASTRESGVPDRFSGGGFGTDFTLTISSLQAEDVAVYYCQQYFNTPWTFGQGTKVEIK
As for B9, in experiment [1], the Kd is below 1 nM.

B10: CC9.3 Fab (Fab, V domains shown)
VH: B9 VH
VL: B9 VL
Regarding B10, the affinity in the experiment with SARS-CoV-2 S, expressed as Kd, was 112 nM.

B11: CC9.3 IgG (antibody, V domains shown)
VH: B9 VH
VL: B9 VL
As for B11, in the experiment with SARS-CoV-2 S, the Kd stood at 2 nM.

B12: CC9.3 (IgG) (antibody, V domains shown)
VH: B9 VH
VL: B9 VL
B12: the Kd in experiment [1] is below 1 nM.
